# Target: B-domain-deleted human coagulation factor VIII (human) (UniProt P00451)
# Test: cell-based or functional assay
# Chain of UniProt P00451 (P00451 other isoform, or with tags, fused parts or gaps limits assumed): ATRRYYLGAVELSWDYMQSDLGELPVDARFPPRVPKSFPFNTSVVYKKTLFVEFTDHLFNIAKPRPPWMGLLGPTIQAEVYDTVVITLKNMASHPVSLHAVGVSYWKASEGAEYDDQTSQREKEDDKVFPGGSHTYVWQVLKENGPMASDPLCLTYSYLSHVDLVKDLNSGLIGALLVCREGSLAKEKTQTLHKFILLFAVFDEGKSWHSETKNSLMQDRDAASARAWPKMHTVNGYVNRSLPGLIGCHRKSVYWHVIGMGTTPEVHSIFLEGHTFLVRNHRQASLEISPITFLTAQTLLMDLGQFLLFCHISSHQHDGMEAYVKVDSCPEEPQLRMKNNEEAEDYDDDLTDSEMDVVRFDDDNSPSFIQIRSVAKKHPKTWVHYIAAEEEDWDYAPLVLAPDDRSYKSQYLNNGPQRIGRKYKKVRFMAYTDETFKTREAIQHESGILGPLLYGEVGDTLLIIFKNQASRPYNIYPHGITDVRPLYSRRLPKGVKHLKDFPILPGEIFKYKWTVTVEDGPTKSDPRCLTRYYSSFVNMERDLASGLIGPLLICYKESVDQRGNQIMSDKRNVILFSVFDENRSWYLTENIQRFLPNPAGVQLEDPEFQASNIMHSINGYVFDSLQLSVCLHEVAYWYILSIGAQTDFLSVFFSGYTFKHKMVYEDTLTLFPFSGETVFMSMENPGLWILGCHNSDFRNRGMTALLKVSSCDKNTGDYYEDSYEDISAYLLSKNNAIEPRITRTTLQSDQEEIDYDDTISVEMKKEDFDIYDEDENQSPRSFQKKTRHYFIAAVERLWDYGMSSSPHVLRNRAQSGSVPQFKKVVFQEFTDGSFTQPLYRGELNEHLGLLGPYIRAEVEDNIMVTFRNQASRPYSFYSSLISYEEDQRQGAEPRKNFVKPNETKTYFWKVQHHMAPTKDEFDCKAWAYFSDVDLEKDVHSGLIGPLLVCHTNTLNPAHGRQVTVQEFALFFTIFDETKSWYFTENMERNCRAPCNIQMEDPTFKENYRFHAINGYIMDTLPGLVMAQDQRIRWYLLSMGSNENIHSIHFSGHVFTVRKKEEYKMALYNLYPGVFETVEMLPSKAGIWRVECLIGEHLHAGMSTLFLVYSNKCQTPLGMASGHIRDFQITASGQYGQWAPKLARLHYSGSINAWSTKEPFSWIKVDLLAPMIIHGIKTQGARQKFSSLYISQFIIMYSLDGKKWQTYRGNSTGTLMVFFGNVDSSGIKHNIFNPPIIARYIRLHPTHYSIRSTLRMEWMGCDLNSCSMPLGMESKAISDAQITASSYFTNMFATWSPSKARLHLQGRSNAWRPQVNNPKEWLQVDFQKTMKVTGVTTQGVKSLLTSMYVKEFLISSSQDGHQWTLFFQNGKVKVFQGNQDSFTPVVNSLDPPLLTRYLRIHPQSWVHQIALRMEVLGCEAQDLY
substance,measurement,value
full length von Willebrand factor (vWF) (from UniProt P04275 23-2813),FVIII activity (chromogenic assay) in supernatant of 293T cells co-transfected with pREP7-BDD.FVIII and pRex52,199
same,FVIII activity in supernatant of K562 cells co-transduced with vBDD.FVIII and vEx52 at a MOI of 1.5,28.3
mutant von Willebrand factor vWF23 (exons 24-46 of vWF deleted) (from UniProt P04275 23-2813),FVIII activity (chromogenic assay) in supernatant of 293T cells co-transfected with pREP7-BDD.FVIII and pRex23,28.9
same,FVIII activity in supernatant of K562 cells co-transduced with vBDD.FVIII and vEx23 at a MOI of 1.5,33.9
mutant von Willebrand factor vWF28 (exons 29-46 of vWF deleted) (from UniProt P04275 23-2813),FVIII activity (chromogenic assay) in supernatant of 293T cells co-transfected with pREP7-BDD.FVIII and pRex28,107
same,FVIII activity in supernatant of K562 cells co-transduced with vBDD.FVIII and vEx28 at a MOI of 1.5,53.3

# Source: patent US20100183556A1
